According to patent US20090324601A1 (published 2009):

Experiments:
[1] = target: T1, PDGFR-alpha on human osteosarcoma MG-63 cells (human, UniProt P16234 24-1089); assay: cell-based or functional assay
[2] = target: T1, PDGFR-alpha on human osteosarcoma MG-63 …; assay: cell-based or functional assay; remark: listed apart in the source
[3] = target: T2, murine PDGFRa on NIH3T3 cells (murine, UniProt P26618 25-1089); assay: FACS on NIH3T3 cells, 10 ug/ml antibody, goat anti-human IgG Cy5
T2 construct: whole, on cells; also called mouse PDGFR-alpha

[4] = target: T1, PDGFR-alpha on human osteosarcoma MG-63 …; assay: FACS titration on MG-63 cells, 4 C, Cy5 goat anti-human detection
[5] = target: T3, Recombinant human sPDGFR-alpha (R&D catalog# 322-PR/CF) (human, UniProt P16234 24-528); assay: soluble PDGFRa binding ELISA, plate coated with recombinant human PDGFR-alpha
T3 construct: extracellular domain; Bought reagent; also called soluble PDGFRa; recombinant soluble PDGFR-alpha extracellular domain

[6] = target: T3, Recombinant human sPDGFR-alpha (R&D …); assay: Biacore T100 SPR, 22 C, mAb immobilised on CM5, sPDGFR-alpha injected, 1:1 fit

T1 sequence (P16234 24-1089): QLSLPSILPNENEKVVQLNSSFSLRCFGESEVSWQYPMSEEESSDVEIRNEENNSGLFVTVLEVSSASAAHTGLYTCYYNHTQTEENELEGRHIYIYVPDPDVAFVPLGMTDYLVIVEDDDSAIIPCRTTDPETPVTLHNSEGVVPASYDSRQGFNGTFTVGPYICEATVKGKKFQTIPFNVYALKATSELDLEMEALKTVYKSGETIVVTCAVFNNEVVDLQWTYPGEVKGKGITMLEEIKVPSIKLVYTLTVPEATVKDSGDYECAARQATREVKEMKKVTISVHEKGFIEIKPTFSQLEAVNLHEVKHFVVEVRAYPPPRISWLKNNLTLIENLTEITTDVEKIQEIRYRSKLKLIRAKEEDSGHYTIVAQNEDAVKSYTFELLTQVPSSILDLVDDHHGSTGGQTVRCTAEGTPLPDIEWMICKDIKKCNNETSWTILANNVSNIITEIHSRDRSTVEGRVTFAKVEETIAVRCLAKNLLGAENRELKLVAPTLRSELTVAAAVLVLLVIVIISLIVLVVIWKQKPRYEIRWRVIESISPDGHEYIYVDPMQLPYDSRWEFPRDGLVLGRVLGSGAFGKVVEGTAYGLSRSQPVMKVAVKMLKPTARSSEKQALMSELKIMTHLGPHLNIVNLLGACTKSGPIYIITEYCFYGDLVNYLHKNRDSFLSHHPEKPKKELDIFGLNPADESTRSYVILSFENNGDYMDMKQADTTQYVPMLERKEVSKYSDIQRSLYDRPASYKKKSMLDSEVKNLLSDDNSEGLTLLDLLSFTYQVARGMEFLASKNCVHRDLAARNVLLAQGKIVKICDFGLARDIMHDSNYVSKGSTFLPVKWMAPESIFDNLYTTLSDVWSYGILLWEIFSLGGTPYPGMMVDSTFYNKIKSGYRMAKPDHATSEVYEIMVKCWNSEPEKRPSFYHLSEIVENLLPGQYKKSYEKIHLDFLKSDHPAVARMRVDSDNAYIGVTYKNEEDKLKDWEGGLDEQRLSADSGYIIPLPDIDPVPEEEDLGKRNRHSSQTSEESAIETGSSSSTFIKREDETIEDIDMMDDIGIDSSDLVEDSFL
T3 sequence (P16234 24-528): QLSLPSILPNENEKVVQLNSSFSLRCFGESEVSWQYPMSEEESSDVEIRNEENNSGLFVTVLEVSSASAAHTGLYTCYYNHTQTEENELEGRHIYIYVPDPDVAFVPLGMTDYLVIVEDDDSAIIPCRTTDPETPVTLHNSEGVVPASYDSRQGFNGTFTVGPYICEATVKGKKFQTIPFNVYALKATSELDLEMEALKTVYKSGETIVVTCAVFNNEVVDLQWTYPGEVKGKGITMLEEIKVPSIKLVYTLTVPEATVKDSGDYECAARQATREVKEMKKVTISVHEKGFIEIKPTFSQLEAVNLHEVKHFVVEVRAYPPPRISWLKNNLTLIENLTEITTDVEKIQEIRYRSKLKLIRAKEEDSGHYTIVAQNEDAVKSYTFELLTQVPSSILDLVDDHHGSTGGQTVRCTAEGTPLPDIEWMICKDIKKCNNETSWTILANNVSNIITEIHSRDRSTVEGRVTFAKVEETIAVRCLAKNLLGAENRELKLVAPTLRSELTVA
T2 sequence (P26618 25-1089): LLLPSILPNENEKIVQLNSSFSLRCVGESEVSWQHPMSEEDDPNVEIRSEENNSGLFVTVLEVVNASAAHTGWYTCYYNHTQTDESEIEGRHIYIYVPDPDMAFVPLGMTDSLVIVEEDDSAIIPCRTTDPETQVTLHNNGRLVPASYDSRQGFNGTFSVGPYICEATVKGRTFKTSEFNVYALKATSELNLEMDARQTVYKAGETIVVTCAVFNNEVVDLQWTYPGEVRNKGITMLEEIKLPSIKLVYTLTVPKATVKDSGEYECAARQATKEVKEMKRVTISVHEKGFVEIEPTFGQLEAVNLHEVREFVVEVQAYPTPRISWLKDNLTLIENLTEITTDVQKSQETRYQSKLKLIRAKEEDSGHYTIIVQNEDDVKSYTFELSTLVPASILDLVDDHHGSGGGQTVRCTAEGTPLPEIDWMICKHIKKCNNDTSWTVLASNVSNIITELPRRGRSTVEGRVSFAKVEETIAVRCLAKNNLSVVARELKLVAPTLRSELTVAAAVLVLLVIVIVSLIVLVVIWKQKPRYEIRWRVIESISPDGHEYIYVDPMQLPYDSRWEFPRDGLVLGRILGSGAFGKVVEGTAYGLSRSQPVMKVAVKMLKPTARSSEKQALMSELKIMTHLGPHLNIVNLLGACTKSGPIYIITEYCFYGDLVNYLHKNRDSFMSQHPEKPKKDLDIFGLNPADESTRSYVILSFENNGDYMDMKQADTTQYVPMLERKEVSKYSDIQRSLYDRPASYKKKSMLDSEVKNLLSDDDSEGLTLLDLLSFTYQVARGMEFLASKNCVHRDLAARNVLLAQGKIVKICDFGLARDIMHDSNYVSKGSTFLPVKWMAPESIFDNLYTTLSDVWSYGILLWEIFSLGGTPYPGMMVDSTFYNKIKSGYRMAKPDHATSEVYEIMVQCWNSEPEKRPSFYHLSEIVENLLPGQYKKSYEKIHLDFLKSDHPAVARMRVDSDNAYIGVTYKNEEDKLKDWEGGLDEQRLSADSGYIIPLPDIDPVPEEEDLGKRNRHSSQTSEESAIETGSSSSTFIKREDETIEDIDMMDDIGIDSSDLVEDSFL

B1: 2.175.3 (antibody, V domains shown)
VH: QVHLVESGGGLVKPGGSLRLSCAASGFTFSDYYMHWIRQAPGKGLEWVSYISRSGSLIYYVDSVKGRFTISRDNAKNSLNLQMNSLRAEDTAVYYCARGGPYSGSPFDYWGQGTLVTVSS
VL: DIQMTQSPSSLSASVGDRVTITCRPSQRISRYLNWYQQKPGKAPKFLIYAASSLPSGVPSRFSGSGSGTDFTLTISTLQPEDFATYYCQQSYSTPPWTFGQGTKVEIK
notes: identified by its values; also called mAb 2.175.3
Proliferation Assay: IC50 ng/ml (1-6-06) [1]: 67.3 ng/mL
Proliferation Assay: IC50 ng/ml (1-23-06) [1]: 56.1 ng/mL
Proliferation Assay: IC50 (1-6-06) [1]: 0.45 nM
Proliferation Assay: IC50 (1-23-06) [1]: 0.37 nM
pTyr Assay: % Inhibition @ 2 µg/ml [1]: 100%
PTYR Assay IC50 [2]: 28 ng/mL
binding result [3]: binds
Kd [4]: 0.328 nM
IC50 [5]: 0.038 µg/mL
Kd [6]: 0.05 nM
koff [6]: 2.59e-05 s⁻¹
kon [6]: 516000 M⁻¹ s⁻¹
